Experimental data taken from paper PMC11652881.
pKd: −log10 of the molar value.

How the values were obtained:
[1] = target: recombinant wild-type cardiac actin (WTRec-ACTC), as F-actin filaments (human) (UniProt P68032); assay: TIRF microscopy of labelled tropomyosin binding along actin filaments; rhodamine phalloidin-labelled ACTC filaments held on bovine ventricular HMM (0.5 mg/ml) on a nitrocellulose-coated coverslip; Alexa-Tm added while recording at 10 frames per second; fluorescence along a filament normalised from 1 to 100 percent; elongation rate = slope of the binding curve from 0 to 15 s
[2] = target: recombinant wild-type cardiac actin (WTRec-ACTC), as F-actin filaments (human) (UniProt P68032); assay: co-sedimentation; 7 uM F-actin with 0.1 to 2 uM tropomyosin in 100 mM KCl, 5 mM MgCl2, 20 mM Tris pH 8, 1 h at 25 C; 100,000 rpm 20 min (TLA100); Tm in the pellet by SDS-PAGE densitometry, normalised 0-100; fit to specific binding with Hill slope

Elongation Rate [1] [s⁻¹] | pKd [2] | Substance
4.56 |  | Alexa488-labeled tropomyosin (bovine ventricular tropomyosin modified on Cys-190) (from UniProt Q5KR49 1-284) (natural protein)
 | 6.27 | tropomyosin purified from bovine ventricular ether powder (from UniProt Q5KR49 1-284)
